Consider 5 molecules from patent publication US20260015399A1 (Boehringer Ingelheim, published 2026).

*1 amine or outer side, *2 acyl side, *3 side chain or, on linkers, in order; H or OH if unused. Side-chain parts run from the residue outwards. The star is where a group is joined. C18 diacid = O=C(O)CCCCCCCCCCCCCCCCC(=O)*; γGlu = O=C(O)[C@H](CCC(=O)[*:2])N[*:1]; Isovaleryl = CC(C)CC(=O)*; Ahx = NCCCCCC(=O)O

The chains are these.
T1: human NPY2 receptor (human, UniProt P49146 1-381)
T1 construct: whole, on cells; also called hNPY2-R; hNPY2R
T1 sequence (looked up): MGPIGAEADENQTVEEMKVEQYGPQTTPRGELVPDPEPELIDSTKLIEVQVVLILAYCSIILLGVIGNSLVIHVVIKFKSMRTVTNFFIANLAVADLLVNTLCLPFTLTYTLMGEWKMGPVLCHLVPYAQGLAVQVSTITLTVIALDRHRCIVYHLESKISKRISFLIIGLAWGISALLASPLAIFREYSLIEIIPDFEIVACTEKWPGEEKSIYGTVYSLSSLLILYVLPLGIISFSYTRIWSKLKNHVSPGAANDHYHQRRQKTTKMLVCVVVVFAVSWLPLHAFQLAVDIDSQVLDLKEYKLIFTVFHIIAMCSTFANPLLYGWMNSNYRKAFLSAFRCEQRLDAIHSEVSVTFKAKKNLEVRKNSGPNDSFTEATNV

B1: Compound 81 (peptide)
peptide: Isovaleryl-APEK([Ahx-γGlu-C18 diacid])PEEDAQPEEIQRYYVSLRHYYNWLTRQRY-NH2
SMILES: CC[C@H](C)[C@H](NC(=O)[C@H](CCC(=O)O)NC(=O)[C@H](CCC(=O)O)NC(=O)[C@@H]1CCCN1C(=O)[C@H](CCC(N)=O)NC(=O)[C@H](C)NC(=O)[C@H](CC(=O)O)NC(=O)[C@H](CCC(=O)O)NC(=O)[C@H](CCC(=O)O)NC(=O)[C@@H]1CCCN1C(=O)[C@H](CCCCNC(=O)CCCCCNC(=O)CC[C@H](NC(=O)CCCCCCCCCCCCCCCCC(=O)O)C(=O)O)NC(=O)[C@H](CCC(=O)O)NC(=O)[C@@H]1CCCN1C(=O)[C@H](C)NC(=O)CC(C)C)C(=O)N[C@@H](CCC(N)=O)C(=O)N[C@@H](CCCNC(=N)N)C(=O)N[C@@H](Cc1ccc(O)cc1)C(=O)N[C@@H](Cc1ccc(O)cc1)C(=O)N[C@H](C(=O)N[C@@H](CO)C(=O)N[C@@H](CC(C)C)C(=O)N[C@@H](CCCNC(=N)N)C(=O)N[C@@H](Cc1c[nH]cn1)C(=O)N[C@@H](Cc1ccc(O)cc1)C(=O)N[C@@H](Cc1ccc(O)cc1)C(=O)N[C@@H](CC(N)=O)C(=O)N[C@@H](Cc1c[nH]c2ccccc12)C(=O)N[C@@H](CC(C)C)C(=O)N[C@H](C(=O)N[C@@H](CCCNC(=N)N)C(=O)N[C@@H](CCC(N)=O)C(=O)N[C@@H](CCCNC(=N)N)C(=O)N[C@@H](Cc1ccc(O)cc1)C(N)=O)[C@@H](C)O)C(C)C
B2: Compound 83 (peptide)
peptide: Isovaleryl-APEK([Ahx-γGlu-C18 diacid])PEEDATSEELQRYYVSLRHYYNWLTRQRY-NH2
SMILES: CC(C)CC(=O)N[C@@H](C)C(=O)N1CCC[C@H]1C(=O)N[C@@H](CCC(=O)O)C(=O)N[C@@H](CCCCNC(=O)CCCCCNC(=O)CC[C@H](NC(=O)CCCCCCCCCCCCCCCCC(=O)O)C(=O)O)C(=O)N1CCC[C@H]1C(=O)N[C@@H](CCC(=O)O)C(=O)N[C@@H](CCC(=O)O)C(=O)N[C@@H](CC(=O)O)C(=O)N[C@@H](C)C(=O)N[C@H](C(=O)N[C@@H](CO)C(=O)N[C@@H](CCC(=O)O)C(=O)N[C@@H](CCC(=O)O)C(=O)N[C@@H](CC(C)C)C(=O)N[C@@H](CCC(N)=O)C(=O)N[C@@H](CCCNC(=N)N)C(=O)N[C@@H](Cc1ccc(O)cc1)C(=O)N[C@@H](Cc1ccc(O)cc1)C(=O)N[C@H](C(=O)N[C@@H](CO)C(=O)N[C@@H](CC(C)C)C(=O)N[C@@H](CCCNC(=N)N)C(=O)N[C@@H](Cc1c[nH]cn1)C(=O)N[C@@H](Cc1ccc(O)cc1)C(=O)N[C@@H](Cc1ccc(O)cc1)C(=O)N[C@@H](CC(N)=O)C(=O)N[C@@H](Cc1c[nH]c2ccccc12)C(=O)N[C@@H](CC(C)C)C(=O)N[C@H](C(=O)N[C@@H](CCCNC(=N)N)C(=O)N[C@@H](CCC(N)=O)C(=O)N[C@@H](CCCNC(=N)N)C(=O)N[C@@H](Cc1ccc(O)cc1)C(N)=O)[C@@H](C)O)C(C)C)[C@@H](C)O
B3: Compound 85 (peptide)
peptide: Isovaleryl-APAK([Ahx-γGlu-C18 diacid])PEEDASPEETQRYYVSLRHYYNWLTRQRY-NH2
SMILES: CC(C)CC(=O)N[C@@H](C)C(=O)N1CCC[C@H]1C(=O)N[C@@H](C)C(=O)N[C@@H](CCCCNC(=O)CCCCCNC(=O)CC[C@H](NC(=O)CCCCCCCCCCCCCCCCC(=O)O)C(=O)O)C(=O)N1CCC[C@H]1C(=O)N[C@@H](CCC(=O)O)C(=O)N[C@@H](CCC(=O)O)C(=O)N[C@@H](CC(=O)O)C(=O)N[C@@H](C)C(=O)N[C@@H](CO)C(=O)N1CCC[C@H]1C(=O)N[C@@H](CCC(=O)O)C(=O)N[C@@H](CCC(=O)O)C(=O)N[C@H](C(=O)N[C@@H](CCC(N)=O)C(=O)N[C@@H](CCCNC(=N)N)C(=O)N[C@@H](Cc1ccc(O)cc1)C(=O)N[C@@H](Cc1ccc(O)cc1)C(=O)N[C@H](C(=O)N[C@@H](CO)C(=O)N[C@@H](CC(C)C)C(=O)N[C@@H](CCCNC(=N)N)C(=O)N[C@@H](Cc1c[nH]cn1)C(=O)N[C@@H](Cc1ccc(O)cc1)C(=O)N[C@@H](Cc1ccc(O)cc1)C(=O)N[C@@H](CC(N)=O)C(=O)N[C@@H](Cc1c[nH]c2ccccc12)C(=O)N[C@@H](CC(C)C)C(=O)N[C@H](C(=O)N[C@@H](CCCNC(=N)N)C(=O)N[C@@H](CCC(N)=O)C(=O)N[C@@H](CCCNC(=N)N)C(=O)N[C@@H](Cc1ccc(O)cc1)C(N)=O)[C@@H](C)O)C(C)C)[C@@H](C)O
B4: Compound 82 (peptide)
peptide: Isovaleryl-APAK([Ahx-γGlu-C18 diacid])PPEDASPEEIQRYYVSLRHYYNWLTRQRY-NH2
SMILES: CC[C@H](C)[C@H](NC(=O)[C@H](CCC(=O)O)NC(=O)[C@H](CCC(=O)O)NC(=O)[C@@H]1CCCN1C(=O)[C@H](CO)NC(=O)[C@H](C)NC(=O)[C@H](CC(=O)O)NC(=O)[C@H](CCC(=O)O)NC(=O)[C@@H]1CCCN1C(=O)[C@@H]1CCCN1C(=O)[C@H](CCCCNC(=O)CCCCCNC(=O)CC[C@H](NC(=O)CCCCCCCCCCCCCCCCC(=O)O)C(=O)O)NC(=O)[C@H](C)NC(=O)[C@@H]1CCCN1C(=O)[C@H](C)NC(=O)CC(C)C)C(=O)N[C@@H](CCC(N)=O)C(=O)N[C@@H](CCCNC(=N)N)C(=O)N[C@@H](Cc1ccc(O)cc1)C(=O)N[C@@H](Cc1ccc(O)cc1)C(=O)N[C@H](C(=O)N[C@@H](CO)C(=O)N[C@@H](CC(C)C)C(=O)N[C@@H](CCCNC(=N)N)C(=O)N[C@@H](Cc1c[nH]cn1)C(=O)N[C@@H](Cc1ccc(O)cc1)C(=O)N[C@@H](Cc1ccc(O)cc1)C(=O)N[C@@H](CC(N)=O)C(=O)N[C@@H](Cc1c[nH]c2ccccc12)C(=O)N[C@@H](CC(C)C)C(=O)N[C@H](C(=O)N[C@@H](CCCNC(=N)N)C(=O)N[C@@H](CCC(N)=O)C(=O)N[C@@H](CCCNC(=N)N)C(=O)N[C@@H](Cc1ccc(O)cc1)C(N)=O)[C@@H](C)O)C(C)C
B5: Compound 86 (peptide)
peptide: Isovaleryl-APEK([Ahx-γGlu-C18 diacid])PEEDATPEEIQRYYASLRHYYNWLTRQRY-NH2
SMILES: CC[C@H](C)[C@H](NC(=O)[C@H](CCC(=O)O)NC(=O)[C@H](CCC(=O)O)NC(=O)[C@@H]1CCCN1C(=O)[C@@H](NC(=O)[C@H](C)NC(=O)[C@H](CC(=O)O)NC(=O)[C@H](CCC(=O)O)NC(=O)[C@H](CCC(=O)O)NC(=O)[C@@H]1CCCN1C(=O)[C@H](CCCCNC(=O)CCCCCNC(=O)CC[C@H](NC(=O)CCCCCCCCCCCCCCCCC(=O)O)C(=O)O)NC(=O)[C@H](CCC(=O)O)NC(=O)[C@@H]1CCCN1C(=O)[C@H](C)NC(=O)CC(C)C)[C@@H](C)O)C(=O)N[C@@H](CCC(N)=O)C(=O)N[C@@H](CCCNC(=N)N)C(=O)N[C@@H](Cc1ccc(O)cc1)C(=O)N[C@@H](Cc1ccc(O)cc1)C(=O)N[C@@H](C)C(=O)N[C@@H](CO)C(=O)N[C@@H](CC(C)C)C(=O)N[C@@H](CCCNC(=N)N)C(=O)N[C@@H](Cc1c[nH]cn1)C(=O)N[C@@H](Cc1ccc(O)cc1)C(=O)N[C@@H](Cc1ccc(O)cc1)C(=O)N[C@@H](CC(N)=O)C(=O)N[C@@H](Cc1c[nH]c2ccccc12)C(=O)N[C@@H](CC(C)C)C(=O)N[C@H](C(=O)N[C@@H](CCCNC(=N)N)C(=O)N[C@@H](CCC(N)=O)C(=O)N[C@@H](CCCNC(=N)N)C(=O)N[C@@H](Cc1ccc(O)cc1)C(N)=O)[C@@H](C)O

Usually Ki stands for a dissociation constant, usually derived from enzyme kinetics or from competition with a known ligand. Low readings indicate higher affinity, high ones lower affinity.

This experiment has as its target T1, human NPY2 receptor. In words: RLB: displacement of 125I-PYY(1-36) from hNPY2R membranes. On the technique in general: Displacement assays read how much labelled ligand stays bound in the presence of the test substance.
In turn, B1 came in with an inhibitory constant (Ki) of 2.65 nM.

The molecule B2 had an inhibition constant Ki of 6.91 nM.

Regarding B3, the Ki amounted to 1.61 nM.

Take B4: the Ki amounted to 0.58 nM.

With B5, the affinity, expressed as Ki, was 4.33 nM.
